Measurements published in patent publication US20240100162A1 (published 2024).

Experiments:
Assay in all cases: killing
[1] = molecular target: T1, MAGE-B2 peptide, E6P peptide on HLA-A*02:01 (human)
T1 peptide: GVYDGPEHSV

[2] = molecular target: T2, MAGE-B2 peptide, E6A peptide on HLA-A*02:01 (human)
T2 peptide: GVYDGAEHSV

[3] = molecular target: T3, MAGE-B2 peptide, E7G peptide on HLA-A*02:01 (human)
T3 peptide: GVYDGEGHSV

[4] = molecular target: T4, MAGE-B2 peptide, E6F peptide on HLA-A*02:01 (human)
T4 peptide: GVYDGFEHSV

[5] = molecular target: T5, MAGE-B2 peptide, E6L peptide on HLA-A*02:01 (human)
T5 peptide: GVYDGLEHSV

[6] = molecular target: T6, MAGE-B2 peptide, G5A peptide on HLA-A*02:01 (human)
T6 peptide: GVYDAEEHSV

[7] = molecular target: T7, MAGE-B2 peptide, E6R peptide on HLA-A*02:01 (human)
T7 peptide: GVYDGREHSV

[8] = molecular target: T8, MAGE-B2 peptide, E7R peptide on HLA-A*02:01 (human)
T8 peptide: GVYDGERHSV

[9] = molecular target: T9, MAGE-B2 peptide, V10Y peptide on HLA-A*02:01 (human)
T9 peptide: GVYDGEEHSY

[10] = molecular target: T10, MAGE-B2 peptide, E6I peptide on HLA-A*02:01 (human)
T10 peptide: GVYDGIEHSV

[11] = molecular target: T11, MAGE-B2 peptide, E6K peptide on HLA-A*02:01 (human)
T11 peptide: GVYDGKEHSV

[12] = molecular target: T12, MAGE-B2 peptide, E6Y peptide on HLA-A*02:01 (human)
T12 peptide: GVYDGYEHSV

[13] = molecular target: T13, MAGE-B2 peptide, E6N peptide on HLA-A*02:01 (human)
T13 peptide: GVYDGNEHSV

[14] = molecular target: T14, MAGE-B2 peptide, G5P peptide on HLA-A*02:01 (human)
T14 peptide: GVYDPEEHSV

[15] = molecular target: T15, MAGE-B2 peptide, E6D peptide on HLA-A*02:01 (human)
T15 peptide: GVYDGDEHSV

[16] = molecular target: T16, MAGE-B2 peptide, G1V peptide on HLA-A*02:01 (human)
T16 peptide: VVYDGEEHSV

[17] = molecular target: T17, MAGE-B2 peptide, G1Y peptide on HLA-A*02:01 (human)
T17 peptide: YVYDGEEHSV

[18] = molecular target: T18, MAGE-B2 peptide, G1C peptide on HLA-A*02:01 (human)
T18 peptide: CVYDGEEHSV

[19] = molecular target: T19, MAGE-B2 peptide, G5C peptide on HLA-A*02:01 (human)
T19 peptide: GVYDCEEHSV

[20] = molecular target: T20, MAGE-B2 peptide, V10C peptide on HLA-A*02:01 (human)
T20 peptide: GVYDGEEHSC

[21] = molecular target: T21, MAGE-B2 peptide, G1S peptide on HLA-A*02:01 (human)
T21 peptide: SVYDGEEHSV

[22] = molecular target: T22, MAGE-B2 peptide, G1M peptide on HLA-A*02:01 (human)
T22 peptide: MVYDGEEHSV

[23] = molecular target: T23, MAGE-B2 peptide, G5L peptide on HLA-A*02:01 (human)
T23 peptide: GVYDLEEHSV

[24] = molecular target: T24, MAGE-B2 peptide, G1P peptide on HLA-A*02:01 (human)
T24 peptide: PVYDGEEHSV

[25] = molecular target: T25, MAGE-B2 peptide, G1D peptide on HLA-A*02:01 (human)
T25 peptide: DVYDGEEHSV

[26] = molecular target: T26, MAGE-B2 peptide, G5M peptide on HLA-A*02:01 (human)
T26 peptide: GVYDMEEHSV

[27] = molecular target: T27, MAGE-B2 peptide, G1I peptide on HLA-A*02:01 (human)
T27 peptide: IVYDGEEHSV

[28] = molecular target: T28, MAGE-B2 peptide, D4E peptide on HLA-A*02:01 (human)
T28 peptide: GVYEGEEHSV

[29] = molecular target: T29, MAGE-B2 peptide, G1F peptide on HLA-A*02:01 (human)
T29 peptide: FVYDGEEHSV

[30] = molecular target: T30, MAGE-B2 peptide, V10M peptide on HLA-A*02:01 (human)
T30 peptide: GVYDGEEHSM

[31] = molecular target: T31, MAGE-B2 peptide, G1E peptide on HLA-A*02:01 (human)
T31 peptide: EVYDGEEHSV

[32] = molecular target: T32, MAGE-B2 peptide, V2S peptide on HLA-A*02:01 (human)
T32 peptide: GSYDGEEHSV

[33] = molecular target: T33, MAGE-B2 peptide, G1H peptide on HLA-A*02:01 (human)
T33 peptide: HVYDGEEHSV

[34] = molecular target: T34, MAGE-B2 peptide, V10T peptide on HLA-A*02:01 (human)
T34 peptide: GVYDGEEHST

[35] = molecular target: T35, MAGE-B2 peptide, G1L peptide on HLA-A*02:01 (human)
T35 peptide: LVYDGEEHSV

[36] = molecular target: T36, MAGE-B2 peptide, V10F peptide on HLA-A*02:01 (human)
T36 peptide: GVYDGEEHSF

[37] = molecular target: T37, MAGE-B2 peptide, V2A peptide on HLA-A*02:01 (human)
T37 peptide: GAYDGEEHSV

[38] = molecular target: T38, MAGE-B2 peptide, G5R peptide on HLA-A*02:01 (human)
T38 peptide: GVYDREEHSV

[39] = molecular target: T39, MAGE-B2 peptide, G1W peptide on HLA-A*02:01 (human)
T39 peptide: WVYDGEEHSV

Measured: binding result

B1: TCR3 (TCR, V domains shown)
Valpha: AQKVTQAQTEISVVEKEDVTLDCVYETRDTTYYLFWYKQPPSGELVFLIRRNSFDEQNEISGRYSWNFQKSTSSFNFTITASQVVDSAVYFCALSVLRMDSSYKLIFGSGTRLLVRP
Vbeta: NAGVTQTPKFRVLKTGQSMTLLCAQDMNHEYMYWYRQDPGMGLRLIHYSVGEGTTAKGEVPDGYNVSRLKKQNFLLGLESAAPSQTSVYFCASSLQGAGQPQHFGDGTRLSIL
recognises: [1] | [2] | [3] | [4] | [5] | [6] | [7] | [8] | [9] | [10] | [11] | [12]

B2: TCR2 (TCR, V domains shown)
Valpha: QKEVEQNSGPLSVPEGAIASLNCTYSDRGSQSFFWYRQYSGKSPELIMSIYSNGDKEDGRFTAQLNKASQYVSLLIRDSQPSDSATYLCAVNIPFSNSGGYQKVTFGTGTKLQVIP
Vbeta: NAGVTQTPKFRVLKTGQSMTLLCAQDMNHEYMYWYRQDPGMGLRLIHYSVGEGTTAKGEVPDGYNVSRLKKQNFLLGLESAAPSQTSVYFCASRHPGQYNQPQHFGDGTRLSIL
recognises: [13] | [14] | [15]

B3: TCR1 (TCR, V domains shown)
Valpha: KQEVTQIPAALSVPEGENLVLNCSFTDSAIYNLQWFRQDPGKGLTSLLLIQSSQREQTSGRLNASLDKSSGRSTLYIAASQPGDSATYLCAAMKTSYDKVIFGPGTSLSVIP
Vbeta: GEEVAQTPKHLVRGEGQKAKLYCAPIKGHSYVFWYQQVLKNEFKFLISFQNENVFDETGMPKERFSAKCLPNSPCSLEIQATKLEDSAVYFCASSQGQGGYGYTFGSGTRLTVV
recognises: [16] | [17] | [18] | [19] | [20] | [21] | [22] | [23] | [24] | [25] | [26] | [27] | [28] | [29] | [30] | [31] | [32] | [33] | [34] | [35] | [36] | [37] | [38] | [39]
